Each block holds one binder with its values, some of them ahead of it. Numbered stars: 1 amine (or outer) side, 2 acyl side, 3 side chain; on linkers, the order of the positions; unused ones are H or OH. Square brackets hold non-standard residues; d marks the D form. Ends that are not written are not given here. βAsp = O=C(O)[C@H](CC(=O)[*:2])N[*:1]; pGlu = O=C1CC[C@@H](C(=O)O)N1
How the values were obtained:
Aβ(1-18) [1] = target: T1, Aβ(1-18) (human); assay: SPR, antibody captured on goat anti-mouse IgG, peptide as analyte; SPR; very weak, KD 931,000 nM
T1 construct: also called wildtype peptide Aβ(1-18)
T1 peptide: DAEFRHDSGYEVHHQKLV
Excerpt: (§1) In order to bind analyzing antibodies K11 and K119 to a CMS sensor Chip (GE Healthcare, Product code BR100012), approximately 15,000-20,000 RU of goat anti mouse IgG (Thermo Fisher Scientific, PA1 28555) were immobilized first. To immobilize the anti-mouse IgG, the carboxymethylated dextran surface of the sensor chip was activated by mixing 0.1 M N-hydroxysuccinimide (NHS) with 0.4 M N-ethyl-N′-(dimethylaminopropyl)carbodiimide hydrochloride (EDC) 1:1. EDC/NHS was applied to the sensor chip for 10 minutes with a flow rate of 10 μl/min. Goat anti mouse IgG was diluted to 50 μg/ml in 10 mM Sodium acetate, pH 5.5 and injected for 2×3 minutes with a flow rate of 10 μl/min. After deactivation with 1 M ethanolamine, pH 8.5 for 2×7 minutes with a flow rate of 10 μl/min, 0.1 M glycine, pH 1.7 was applied to the sensor chip with a flow rate of 30 μl/min for 3 minutes, followed by a washing step with HBS-EP buffer (GE Healthcare, Product code BR100188).
Binding of about 2,000 RU anti isoAsp7-Aβ antibodies occurred with a flow rate of 10 μl/min. […]
(§2) Kinetic constants were determined by applying Aβ peptides at different concentrations and calculated from the combined set of data by using BIAevaluation software (Biacore AB) (FIG. 2A and FIG. 3).

Aβ(1-40) = target: T2, Aβ(1-40); assay: SPR, antibody captured on goat anti-mouse IgG, peptide as analyte
T2 construct: Synthetic peptide; also called wildtype Aβ(1-40)
Excerpt: as §1
(§3) Binding of about 2,000 RU anti isoAsp7-Aβ antibodies occurred with a flow rate of 10 μl/min. To achieve this, antibodies were diluted to 25 μg/ml in HBS-EP buffer and applied to the sensor chip, followed by washing with HBS-EP until the RU signal remains constant.
as §2

pE3-Aβ(3-18) = target: T3, pE3-Aβ(3-18); assay: as above
T3 peptide: [pGlu]FRHDSGYEVHHQKLV
Excerpt: as §1, §3, §2

pE3-isoD7-Aβ(3-18) = target: T4, pE3-isoD7-Aβ(3-18); assay: as above
T4 peptide: [pGlu]FRH[βAsp]SGYEVHHQKLV
Excerpt: as §1, §3, §2

Mouse isoD7-Aβ(1-18) = target: T5, Mouse isoD7-Aβ(1-18) (mouse); assay: as above
T5 peptide: DAEFGH[βAsp]SGFEVRHQKLV
Excerpt: as §1, §3, §2

isoD7-Aβ(1-40) = target: T6, isoD7-Aβ(1-40) (isoAsp at position 7); assay: as above
T6 construct: Synthetic peptide
Excerpt: as §1, §3, §2

isod7-Aβ(1-17) = target: T7, isod7-Aβ(1-17) (human, D-isoaspartate at position 7); assay: SPR, antibody captured on goat anti-mouse IgG, peptide as analyte; SPR
T7 construct: also called D-isoaspartate isomer containing peptide derivative
T7 peptide: DAEFRHXSGYEVHHQKL
Method: (§4) FIG. 2: Determination of binding constants of immobilized K11 with different Aβ-peptides by SPR analysis. 1,500-2,000 RU of antibody K11 were immobilized on a CMS chip by binding to goat anti mouse IgG. Monomeric Aβ peptides were injected in varying concentrations. KD values were calculated by using single-cycle kinetic analysis of BIAevaluation software. A—isoD7-Aβ(1-18) was applied at 1 nM, 3 nM, 9 nM, 27 nM, 81 nM and 243 nM. B—isod7-Aβ(1-17) was applied at 1 nM, 3 nM, 9 nM, 27 nM, 81 nM and 243 nM. C—Aβ(1-18) was applied at […], 30 nM, 90 nM, 270 nM, 810 nM and 2430 nM.
as §1, with “After deactivation with 1 M ethanolamine, pH 8.5 for 2×7 minutes with a flow rate of 10 μl/min, 0.1 M glycine, pH 1.7 was applied to the sensor chip with a flow rate of 30 μl/min for 3 minutes, followed by a washing step with HBS-EP buffer (GE Healthcare, Product code BR100188).” left out

Aβ(1-18) [2] = target: T1, Aβ(1-18); assay: as above
Method: as §4
as §1, with “After deactivation with 1 M ethanolamine, pH 8.5 for 2×7 minutes with a flow rate of 10 μl/min, 0.1 M glycine, pH 1.7 was applied to the sensor chip with a flow rate of 30 μl/min for 3 minutes, followed by a washing step with HBS-EP buffer (GE Healthcare, Product code BR100188).” left out

Aβ(1-30) = target: T8, Aβ(1-30); assay: sandwich ELISA: K11 immobilised at 2 µg/ml as capture, peptide serially diluted, HRP-conjugated 4G8 as detection, absorbance 450/540 nm
T8 construct: also called non-modified Aβ peptide
Method: FIG. 8: Sandwich ELISA for quantification of isoAsp7-Aβ and total Aβ concentrations in biological samples. Capture antibodies K11 (A) and 3D6 (B) were diluted to 2 μg/ml and immobilized on microtiter plates overnight at 4° C. Blocking occurred for 2 hours at room temperature. isoD7-Aβ(1-30) (SEQ ID NO: 51) and Aβ(1-30) (SEQ ID NO: 52) were serially diluted and added to the wells in duplicate. After an incubation period of 2 hours at 4° C., plates were washed six times with TBS-T. HRP-conjugated anti Aβ antibody clone 4G8 was added in a final concentration of 1 μg/ml and incubated for 1 hour at 4° C. After washing with TBS-T, a color reaction with TMB was performed and stopped by the addition of 1.2 N H₂SO₄. The standard curve was calculated from measured absorption at 450/540 nm by a 4-Parameter-Logistic-Fit: y=(A2+(A1−A2)/(1+(x/x₀)\hat{ }p).
In order to determine the amounts of isoD7-Aβ in biological samples, an indirect Sandwich ELISA was established. Therefore, K11 was diluted in PBS to 2μg/ml and immobilized on polystyrene 96-well microtiter plates overnight at 4° C. Blocking occurred for 2 hours at 4° C. with ELISA Blocker (Thermo Fisher Scientific). […] Absorption at 450/540 nm was determined by a Tecan Sunrise plate reader. The standard curve was calculated from measured absorption by a 4-Parameter-Logistic-Fit: y=(A2+(A1−A2)/(1+(x/x0)\hat{ }p).

T2 sequence (peptide, as listed by the source): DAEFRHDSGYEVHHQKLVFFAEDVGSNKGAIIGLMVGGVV
T8 sequence (peptide, as listed by the source): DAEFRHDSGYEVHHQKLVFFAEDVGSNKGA
T6 sequence (peptide, as listed by the source): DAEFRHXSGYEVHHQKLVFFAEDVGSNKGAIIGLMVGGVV

Kd (Aβ(1-18) [1]): 931000 nM
B1: monoclonal antibody K119 (antibody, mouse IgG2a, kappa, V domains shown)
VH: EVKLVESGGGLVQPGGSLRLSCATSGFTFTDYYMSWVRQPPGKALEWLGFIRNKANGYTTEYSASVKGRFTISRDNSQSILYLQMNTLRTEDSATYYCTRDIPTIMDYWGQGTSVTVSS
VL: DIVMSQSPSSLAVSAGEKATMSCKSSQSLFNSRTRKNYVAWLQQKPGQSPKLLISWASTRESGVPDRFTGSGSGTDFALTITNVQAEDLAVYYCKQSYNLRAFGGGTKLEITR
notes: Mouse monoclonal antibody from a hybridoma

Kd (Aβ(1-40)): 1670 nM
Kd (pE3-Aβ(3-18)): 402 nM
Kd (pE3-isoD7-Aβ(3-18)): 1.7 nM
Kd (Mouse isoD7-Aβ(1-18)): 153 nM
Kd (isoD7-Aβ(1-40)): 3.5 nM
Kd (isod7-Aβ(1-17)): 2690 nM
Kd (Aβ(1-18) [2]): 2700 nM
binding result (Aβ(1-30)): no binding (tested: 140 pg/ml)
B2: monoclonal antibody K11 (antibody, mouse IgG1, kappa, V domains shown)
VH: QVQLKESGPGLVAPSQSLSITCTVSGFSLTSYGVHWVRQPPGKGLEWLGALWASGNTDYSSTLMSRLSISKDNSKSQVFLKMNSLQTDDTAMYYCARDRGILTGGYFDVWGAGTTVTVSS
VL: DIVMSQSPTSLAVSAGEKVTMSCKSSQSLLNSRNRKNYLAWYQQKPGQSPKLLIYWASTRDSGVPDRFTGSGSGTDFTLTISSVQAEDLAVYYCKQSYNLRTFGGGTKLEIKR
notes: Mouse monoclonal antibody from a hybridoma; also called clone K11; anti isoAsp7-Aβ antibody K11
